Like-named read-outs stand apart in the source and are kept apart here.
T1: human TPBG (trophoblast glycoprotein), full length, cell surface expressed (human, UniProt Q13641 32-420)
T1 sequence: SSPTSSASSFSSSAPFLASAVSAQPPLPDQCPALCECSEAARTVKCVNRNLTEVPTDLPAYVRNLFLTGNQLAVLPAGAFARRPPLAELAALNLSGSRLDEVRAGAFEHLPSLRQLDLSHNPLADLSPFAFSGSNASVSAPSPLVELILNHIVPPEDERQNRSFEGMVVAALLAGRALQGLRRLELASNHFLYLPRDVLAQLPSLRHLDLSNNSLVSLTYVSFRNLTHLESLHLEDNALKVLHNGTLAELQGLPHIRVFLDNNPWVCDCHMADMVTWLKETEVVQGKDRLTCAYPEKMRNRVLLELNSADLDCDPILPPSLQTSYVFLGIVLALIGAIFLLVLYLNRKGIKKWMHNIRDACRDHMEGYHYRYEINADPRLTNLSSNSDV

T2: minipig TPBG, full length, cell surface expressed on CHO-K1 cells (minipig)
T2 chain: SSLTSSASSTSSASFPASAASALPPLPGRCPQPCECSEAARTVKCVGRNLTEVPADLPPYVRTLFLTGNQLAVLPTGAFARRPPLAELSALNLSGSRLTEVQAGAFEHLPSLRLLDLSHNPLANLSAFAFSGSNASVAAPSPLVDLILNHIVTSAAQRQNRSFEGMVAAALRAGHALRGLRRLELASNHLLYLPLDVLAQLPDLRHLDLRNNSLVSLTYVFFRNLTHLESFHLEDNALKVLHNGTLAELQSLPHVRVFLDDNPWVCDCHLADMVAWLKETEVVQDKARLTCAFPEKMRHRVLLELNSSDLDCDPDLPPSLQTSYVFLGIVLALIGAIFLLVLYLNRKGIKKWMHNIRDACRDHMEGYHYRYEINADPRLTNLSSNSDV

T3: huTPBG (recombinant human TPBG immobilised on the Biacore chip) (human, UniProt Q13641 32-355, limits assumed)
T3 construct: also called human TPBG antigen
T3 sequence: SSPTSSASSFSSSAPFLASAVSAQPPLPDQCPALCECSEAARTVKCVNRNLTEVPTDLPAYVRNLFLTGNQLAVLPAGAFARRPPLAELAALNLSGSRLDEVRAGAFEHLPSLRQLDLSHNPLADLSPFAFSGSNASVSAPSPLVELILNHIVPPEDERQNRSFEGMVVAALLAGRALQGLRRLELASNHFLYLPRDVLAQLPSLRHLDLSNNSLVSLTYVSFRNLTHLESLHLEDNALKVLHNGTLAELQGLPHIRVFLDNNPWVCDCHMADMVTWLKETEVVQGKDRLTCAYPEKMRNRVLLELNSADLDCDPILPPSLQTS

T4: recombinant extracellular domain of minipig TPBG (Biacore analyte) (minipig)
T4 chain: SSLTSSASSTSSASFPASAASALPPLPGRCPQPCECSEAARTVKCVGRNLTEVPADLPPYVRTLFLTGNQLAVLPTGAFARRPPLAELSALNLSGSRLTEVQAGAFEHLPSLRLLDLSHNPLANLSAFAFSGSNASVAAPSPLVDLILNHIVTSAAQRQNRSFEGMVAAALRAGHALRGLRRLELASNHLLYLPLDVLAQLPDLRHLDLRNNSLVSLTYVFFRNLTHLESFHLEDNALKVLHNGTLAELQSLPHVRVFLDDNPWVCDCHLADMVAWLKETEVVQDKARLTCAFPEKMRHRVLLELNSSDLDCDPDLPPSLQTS


Key:
[1] = molecular target: T1, human TPBG (trophoblast glycoprotein), …
[2] = molecular target: T1, human TPBG (trophoblast glycoprotein), …; assay: cell-based or functional assay
[3] = molecular target: T2, minipig TPBG, full length, cell surface …; assay: cell-based or functional assay
[4] = molecular target: T1, human TPBG (trophoblast glycoprotein), …; assay: cell-based or functional assay; remark: listed apart in the source
[5] = molecular target: T1, human TPBG (trophoblast glycoprotein), …; assay: cell-based or functional assay; remark: listed apart in the source
[6] = molecular target: T1, human TPBG (trophoblast glycoprotein), …; assay: cell-based or functional assay; remark: listed apart in the source
[7] = molecular target: T1, human TPBG (trophoblast glycoprotein), …; assay: cell-based or functional assay; remark: listed apart in the source
[8] = molecular target: T3, huTPBG (recombinant human TPBG …); assay: SPR Biacore T200; huTPBG amine-coupled, Fab-PE injected; pH 5.5
[9] = molecular target: T3, huTPBG (recombinant human TPBG …); assay: SPR Biacore T200; huTPBG amine-coupled, Fab-PE injected; pH 7.4
[10] = molecular target: T1, human TPBG (trophoblast glycoprotein), …; assay: flow cytometry on CHO-K1 stably expressing human TPBG; Fab-PE fusion
[11] = molecular target: T2, minipig TPBG, full length, cell surface …; assay: flow cytometry on CHO-K1 stably expressing minipig TPBG; Fab-PE fusion
[12] = molecular target: T2, minipig TPBG, full length, cell surface …; assay: cell-based or functional assay
[13] = molecular target: T1, human TPBG (trophoblast glycoprotein), …; assay: cell-based or functional assay; remark: listed apart in the source
[14] = molecular target: T1, human TPBG (trophoblast glycoprotein), …; assay: cell-based or functional assay; remark: listed apart in the source
[15] = molecular target: T2, minipig TPBG, full length, cell surface …; assay: cell-based or functional assay
[16] = molecular target: T1, human TPBG (trophoblast glycoprotein), …; assay: cell-based or functional assay; remark: listed apart in the source
[17] = molecular target: T1, human TPBG (trophoblast glycoprotein), …; assay: cell-based or functional assay; remark: listed apart in the source
[18] = molecular target: T1, human TPBG (trophoblast glycoprotein), …; assay: cell-based or functional assay; remark: listed apart in the source
[19] = molecular target: T3, huTPBG (recombinant human TPBG …); assay: SPR Biacore T200; huTPBG amine-coupled, Fab injected
[20] = molecular target: T1, human TPBG (trophoblast glycoprotein), …; assay: flow cytometry on SW620 clone 4 cells; ratio of MFI; replicate 1
[21] = molecular target: T1, human TPBG (trophoblast glycoprotein), …; assay: flow cytometry on SW620 clone 4 cells; ratio of MFI; replicate 2
[22] = molecular target: T4, recombinant extracellular domain of …; assay: SPR (Biacore T200): Fab captured on anti-huFab antibody, minipig TPBG injected for 120 s at 4.9-400 nM, dissociation 660 s
[23] = molecular target: T2, minipig TPBG, full length, cell surface …; assay: flow cytometry on CHO cells stably expressing minipig TPBG; Fab dilution series 0.01-20 µg/ml, PE-labelled anti-kappa secondary antibody

Row | Binder | EC50 [1] | EC50 cytotoxicity, Fab-PE fusion, stable CHO-K1 huTPBG [2] | EC50 cytotoxicity, Fab-PE fusion, stable CHO-K1 pgTPBG [3] | X-fold lower potency pgTPBG versus huTPBG [3] | EC50 cytotoxicity, Fab-PE fusion, H1975, replicate 1 [4] | EC50 cytotoxicity, Fab-PE fusion, H1975, replicate 2 [4] | EC50 proliferation, H1975, 10 min exposure [5] | EC50 proliferation, H1975, 30 min exposure [5] | EC50 proliferation, H1975, 60 min exposure [5] | EC50 proliferation, H1975, continuous exposure [5] | X-fold higher potency than Fab-PE fusion protein of H8, H1975, 10 min [6] | X-fold higher potency than Fab-PE fusion protein of H8, H1975, 30 min [6] | X-fold higher potency than Fab-PE fusion protein of H8, H1975, 60 min [6] | X-fold higher potency than Fab-PE fusion protein of H8, H1975, continuous [6] | EC50 protein synthesis inhibition (luciferase), BxPC-3, replicate 1 [7] | EC50 protein synthesis inhibition (luciferase), BxPC-3, replicate 2 [7] | Kd [8] | koff [8] | kon [8] | Kd [9] | other results
1 | anti-TPBG 097 Fab-PE fusion protein (refolded from E. coli inclusion bodies) (Fab, also called Fab-PE comprising antibody 097) heavy: MEVQLLESGGGLAQPGGSLRLSCAASGFTFNNDAMTWVRQAPGKGLEWVSAISGSGGSTYYADSVKGRFTISRDNSKNTLYLQMNSLRAEDTAVYYCAKGGSWGDWYYYFYPMDVWGQGTTVTVSSASTKGPSVFPLAPSSKSTSGGTAALGCLVKDYFPEPVTVSWNSGALTSGVHTFPAVLQSSGLYSLSSVVTVPSSSLGTQTYICNVNHKPSNTKVDKKVEPKSCDKTHKASGGRHRQPRGWEQLGGGGGSPTGAEFLGDGGDVSFSTRGTQNWTVERLLQAHAQLEERGYVFVGYHGTFLEAAQSIVFGGVAARSQDLAAIWAGFYIAGDPALAYGYAQDQEPDAAGRIRNGALLRVYVPASSLPGFYRTSLTLAAPEAAGEVERLIGHPLPLALDAITGPEEEGGRLETILGWPLAERTVVIPSAIPTDPRNVGGDLDPSSIPDKEQAISALPDYASQPGKPPREDLK light: not shown | 0.64 nM | 0.04 nM | 0.14 nM | 3.4 fold | 0.013 nM | 0.013 nM | 0.211 nM | 0.189 nM | 0.203 nM | 0.013 nM | 0.9 fold | 0.9 fold | 1.1 fold | 1.1 fold | 0.022 nM | 0.008 nM | 7.49 nM | 0.00605 s⁻¹ | 808000 M⁻¹ s⁻¹ | 1.97 nM | koff [9]: 0.00121 s⁻¹; kon [9]: 614000 M⁻¹ s⁻¹; EC50 [10]: 5.6 nM; EC50 [11]: 15.4 nM
2 | anti-TPBG 091 Fab-PE fusion protein (refolded from E. coli inclusion bodies) (Fab, also called Fab-PE comprising antibody 091) heavy: MEVHLLESGGGLVHPGGSLRLSCAASGFTFRSDAMHWVRQAPGKGLEWVSGVSGSGGSPYYADSVKGRFTISRDDSKTTLYLQMNSLRAEDTAVYYCATGGSIAGSYYYYPMDVWGQGTTVTVSSASTKGPSVFPLAPSSKSTSGGTAALGCLVKDYFPEPVTVSWNSGALTSGVHTFPAVLQSSGLYSLSSVVTVPSSSLGTQTYICNVNHKPSNTKVDKKVEPKSCDKTHKASGGRHRQPRGWEQLGGGGGSPTGAEFLGDGGDVSFSTRGTQNWTVERLLQAHAQLEERGYVFVGYHGTFLEAAQSIVFGGVAARSQDLAAIWAGFYIAGDPALAYGYAQDQEPDAAGRIRNGALLRVYVPASSLPGFYRTSLTLAAPEAAGEVERLIGHPLPLALDAITGPEEEGGRLETILGWPLAERTVVIPSAIPTDPRNVGGDLDPSSIPDKEQAISALPDYASQPGKPPREDLK light: not shown | 0.89 nM | 0.05 nM | 0.15 nM | 3.3 fold | 0.005 nM | 0.003 nM | 0.057 nM | 0.062 nM | 0.043 nM | 0.003 nM | 4 fold | 3.3 fold | 4.2 fold | 3.7 fold | 0.014 nM | 0.007 nM | 8.89 nM | 0.00201 s⁻¹ | 226000 M⁻¹ s⁻¹ | 0.461 nM | koff [9]: 0.000129 s⁻¹; kon [9]: 280000 M⁻¹ s⁻¹; EC50 [10]: 8.5 nM; EC50 [11]: 10.8 nM
3 | prior art anti-TPBG antibody H8, Fab fragment (Fab, V domains shown, also called Fab(H8); Fab1) VH: EVQLQQSGPDLVKPGASVKISCKASGYSFTGYYMHWVKQSHGKSLEWIGRINPNNGVTLYNQKFKDKAILTVDKSSTTAYMELRSLTSEDSAVYYCARSTMITNYVMDYWGQVTSVTVSS VL: SIVMTQTPTFLLVSAGDRVTITCKASQSVSNDVAWYQQKPGQSPTLLISYTSSRYAGVPDRFIGSGYGTDFTFTISTLQAEDLAVYFCQQDYNSPPTFGGGTKLEIKR |  |  |  |  |  |  |  |  |  |  |  |  |  |  |  |  |  |  |  |  | fold lower potency on minipig TPBG cells than on human TPBG cells, sandwich construct [12]: ~100 fold; internalization after 1.0 h, MCF7 cells [13]: 61%; internalization after 2.0 h, MCF7 cells [13]: 79%; EC50 cytotoxicity, Fab + anti-kappa-Fab-PE, CHO-K1/human TPBG, replicate 1 [14]: 0.41 nM; EC50 cytotoxicity, Fab + anti-kappa-Fab-PE, CHO-K1/human TPBG, replicate 2 [14]: 0.52 nM; EC50 cytotoxicity, Fab + anti-kappa-Fab-PE, CHO-K1/minipig TPBG, replicate 1 [15]: 48 nM; EC50 cytotoxicity, Fab + anti-kappa-Fab-PE, CHO-K1/minipig TPBG, replicate 2 [15]: 45.9 nM; EC50 cytotoxicity, Fab-PE sandwich construct, MCF7 [16]: 1.25 nM; EC50 cytotoxicity, Fab-PE sandwich construct, MCF7 (comparison with A1-A3) [17]: 1.85 nM; EC50 cytotoxicity, Fab-PE sandwich construct, H1975, replicate 1 [18]: 0.698 nM; EC50 cytotoxicity, Fab-PE sandwich construct, H1975, replicate 2 [18]: 0.451 nM; EC50 cytotoxicity, Fab-PE sandwich construct, H1975, replicate 3 [18]: 0.656 nM; Kd [19]: 0.00158 nM; koff [19]: 2.17e-07 s⁻¹; kon [19]: 137000 M⁻¹ s⁻¹; Fold change pH 7.2 vs pH 5.5 [20]: 4.2 fold; Fold change pH 7.2 vs pH 5.5 [21]: 6.8 fold; binding result [22]: no binding; binding result [23]: no binding (tested: 20 µg/ml)

Source: US20180311371A1 (Hoffmann-La Roche, published 2018)
